Results reported in publication PMC10424185, “C-2 Thiophenyl Tryptophan Trimers Inhibit Cellular Entry of SARS-CoV-2 through Interaction with the Viral Spike (S) Protein” (Journal of Medicinal Chemistry, 2023).

Molecular target: S:D614G protein (SARS-CoV-2 spike with the D614G mutation, form used for cryoEM) (SARS-CoV-2 | not stated)
Assay: cryo-EM structure

S:D614G protein (SARS-CoV-2 spike with the D614G mutation, form used for cryoEM)
stoichiometry N: 3
